In the test the target is T1, APOC2 (Homo sapiens, UniProt P02655).
T1 chain: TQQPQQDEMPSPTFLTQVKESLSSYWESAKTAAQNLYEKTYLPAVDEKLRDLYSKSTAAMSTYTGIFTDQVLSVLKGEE
As to the kind of experiment: biolayer interferometry. (In general: Biolayer interferometry detects binding as a change in optical thickness at a sensor tip.)

The text below walks through data of publication PMC8351524 (2021).

B1: CD36 (protein)
chain: GCDRNCGLIAGAVIGAVLAVFGGILMPVGDLLIQKTIKKQVVLEEGTIAFKNWVKTGTEVYRQFWIFDVQNPQEVMMNSSNIQVKQRGPYTYRVRFLAKENVTQDAEDNTVSFLQPNGAIFEPSLSVGTEADNFTVLNLAVAAASHIYQNQFVQMILNSLINKSKSSMFQVRTLRELLWGYRDPFLSLVPYPVTTTVGLFYPYNNTADGVYKVFNGKDNISKVAIIDTYKGKRNLSYWESHCDMINGTDAASFPPFVEKSQVLQFFSSDICRSIYAVFESDVNLKGIPVYRFVLPSKAFASPVENPDNYCFCTEKIISKNCTSYGVLDISKCKEGRPVYISLPHFLYASPDVSEPIDGLNPNEEEHRTYLDIEPITGFTLQFAKRLQVNLLVKPSEKIQVLKNLKRNYIVPILWLNETGTIGDEKANMFRSQVTGKINLLGLIEMILLSVGVVMFVAFMISYCACRSKTIK
Take B1: binding was characterised by a dissociation constant (Kd) of 128 nM.
